# Experimental data published in patent US20240043558A1 (SHANGHAI HENLIUS BIOTECH, published 2024).
# How the values were obtained:
# [1] = molecular target: recombinant human GPC3 protein (human) (UniProt P51654); experiment: ELISA on plate-coated human GPC3, OD 450 nm
# [2] = molecular target: GPC3 expressed endogenously on HepG2 and Hep3B human hepatoma cells (human) (UniProt P51654); experiment: flow cytometry on HepG2 cells (endogenous GPC3), MFI
# [3] = molecular target: GPC3 expressed endogenously on HepG2 and Hep3B human hepatoma cells (human) (UniProt P51654); experiment: flow cytometry on Hep3B cells (endogenous GPC3), MFI
# [4] = molecular target: T1, GPC3 expressed endogenously on HepG2 and Hep3B human hepatoma cells (human, UniProt P51654 25-554); experiment: flow cytometry on HepG2 cells (endogenous GPC3), MFI
# T1 construct: Endogenous GPC3 of human hepatoma lines; also called HepG2 cells; Hep3B cells
# T1 sequence (P51654 other isoform, or with tags, fused parts or gaps limits assumed, form in doubt): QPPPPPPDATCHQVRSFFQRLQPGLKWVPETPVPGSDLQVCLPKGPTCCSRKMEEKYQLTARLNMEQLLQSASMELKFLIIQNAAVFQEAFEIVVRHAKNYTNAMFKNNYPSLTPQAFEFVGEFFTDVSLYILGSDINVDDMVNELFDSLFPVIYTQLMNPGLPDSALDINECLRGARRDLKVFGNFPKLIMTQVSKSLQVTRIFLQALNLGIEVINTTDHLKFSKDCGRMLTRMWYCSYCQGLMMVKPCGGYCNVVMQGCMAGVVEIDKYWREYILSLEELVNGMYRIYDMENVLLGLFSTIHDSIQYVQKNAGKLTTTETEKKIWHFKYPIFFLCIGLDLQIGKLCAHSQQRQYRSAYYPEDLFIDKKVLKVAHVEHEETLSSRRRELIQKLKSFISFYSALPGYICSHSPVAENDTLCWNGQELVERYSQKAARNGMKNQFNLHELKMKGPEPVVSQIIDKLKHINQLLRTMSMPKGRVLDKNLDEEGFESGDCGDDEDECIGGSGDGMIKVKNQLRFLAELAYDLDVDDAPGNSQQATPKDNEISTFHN
# Chain of GPC3 expressed endogenously on HepG2 and Hep3B human hepatoma cells (human) (P51654 other isoform, or with tags, fused parts or gaps limits assumed, form in doubt): as above
# Chain of recombinant human GPC3 protein (human) (P51654 other isoform, or with tags, fused parts or gaps limits assumed, form in doubt): as above
Molecule,EC50 (read off the curve) [1],EC50 (read off the curve) [2],EC50 (read off the curve) [3],EC50 (read off the curve) [4]
HN3 VHH-Fc (Fc fusion),0.02 µg/mL,2 nM,2 nM,–
"1B01 llama-human chimeric bivalent VHH-Fc (Fc fusion, expressed in ExpiCHO; also called Clone 1B01; 1B01 llama VHH fused to human IgG1 Fc; not shown: human IgG1 Fc fused to the C-terminal of the VHH) QVQLQESGGGLVQAGGSLRLSCAAVGLPFSNYAMGWFRQAPGEEREFVSAVSANGGNEYYADSVKDRFTISRDNAKNTVYLRMLSLKLEDTAIYYCATVRRRGGTFTVGSYRGQGTQVTVSS",–,–,–,~0.3 nM
